From patent US20150355179A1, “CDKACT BIOSENSORS-FLUORESCENT POLYPEPTIDE TO PROBE THE ACTIVITY OF CDK/CYCLIN KINASES IN VITRO, IN CELLULO AND IN VIVO” (CENTRE NATIONAL DE LA RECHERCHE SCIENTIFIQUE (CNRS), priority 2012, published 2015)

B1: CDKACTH1 (protein)
chain: GEVVDSHLSDMLQQLHSVNASKPSERGLVRQEEAEDPASIPIFWVSKWVDYSDKYGLGYQLSDNSVGVLFNDSTRLILYNDGDSLQYIERDGTESYLTVSSHPNSLMKKITLLKYFRNYMSEHLLKAGANITPREGDELARLPYLRTWFRTRSAIILHLSNGSVQINFFQDHTKLILSPLMAAVTYIDEKRDFRTYRLSLLEEYGSSKELASRLRYARTMVDKLLSSRSASNRLKASPGAGGTGGLPGGGGCSTPKKAKKL
modifications: left off: a dimerising Fc or GST
B2: unlabelled sensor: CDKACTH1 biosensor without fluorescent label, used as competitive substrate (protein)
chain: B1 chain
modifications: left off: a dimerising Fc or GST

Key:
CDK4/Cyclin D = target: T1, CDK4/Cyclin D (Homo sapiens, UniProt P11802); experiment: Real-time fluorescence kinase assay with recombinant CDK4/Cyclin D; type: biochemical; settings: dependent on MgCl2/ATP
T1 construct: made in house; host or cells: E. coli
Procedure: (§1) Fluorescence kinase assays were performed in 96-well plates in a thermostated chamber (Polarstar BMG) at 30° C. in 200 ul phosphate buffer saline, pH 7.2, 150 mM NaCl, in the presence of 5 mM MgCl2, 0.5 mM ATP, except when stated otherwise. The fluorescence of Cy3-labelled CDKACTH1 with recombinant CDK/Cyclin complexes or with cell extracts was monitored over time. Changes in Cy3 fluorescence emission were recorded at 590 nm following excitation at 544 nm. In all experiments, the fluorescence of CDKACTH1-Cy3 alone was substracted from all other values. Data analysis and curve fitting were performed using the GraFit Software (Erathicus Ltd).
(§2) To address the issue of specificity, we asked whether other kinases could phosphorylate and thereby affect the fluorescence of CDKACTH1. We first examined CDK1/Cyclin B and CDK4/Cyclin D (FIGS. 3A and B).

CDK1/Cyclin B = target: T2, CDK1/Cyclin B (Homo sapiens, UniProt P06493); experiment: Real-time fluorescence kinase assay with recombinant CDK1/Cyclin B; type: biochemical
T2 construct: made in house; host or cells: E. coli
Procedure: as §1, §2

Plk1 = Plk1 (Homo sapiens, UniProt P53350); experiment: Real-time fluorescence kinase assay with Plk1 kinase (specificity); type: biochemical; settings: 25 nM CDKACTH1, 25, 50, 75 nM Plk1
Procedure: as §1, §2

Plk3 = Plk3 (Homo sapiens, UniProt Q9H4B4); experiment: Real-time fluorescence kinase assay with Plk3 kinase (specificity); type: biochemical; settings: 25 nM CDKACTH1, 25, 50, 75 nM Plk3
Procedure: as §1, §2

GST-CDK1-Cyclin B = target: T3, GST-CDK1-Cyclin B (Homo sapiens, UniProt P06493); experiment: Radioactive endpoint kinase assay with GST-CDK1-Cyclin B; type: biochemical; settings: radioactive gamma-ATP, 30 min at 30° C., histone H1 positive control
T3 construct: made in house; host or cells: E. coli

[1] = Solubility of the biosensor after removal of the GST tag; type: physicochemical
Procedure: The […]1 biosensor was engineered by cloning residues 367-603 of PBD from Plk1 into the pGex6[…]. […]1 was expressed in E. coli, then purified on High performance glutathione Sepharose in 50 mM TrisHCl, pH 7.4, 150 mM NaCl, then further purified by Gel Filtration chromatography. […] Following purification, […]1 was labelled with a 10fold molar excess Cy3-maleimide and further purified on NAPS columns to remove excess label.

CDK2/Cyclin A = target: T4, CDK2/Cyclin A (Homo sapiens, UniProt P24941); experiment: Real-time fluorescence kinase assay with recombinant active CDK2/Cyclin A; type: biochemical
T4 construct: made in house; host or cells: E. coli
Procedure: (§3) In order to characterize CDKACT-H1 biosensor in vitro, we first asked whether it could be used to monitor recombinant kinase activity in a real-time assay.
as §1, §3
In vitro characterization was performed as described in Example 2. […] Assays were performed at 30° C. for 1600s. Fluorescence emission of Cy5 was measured at 675 nm following excitation at 645 nm on Polarstar™ fluorimeter.
Assays were performed at 30° C. for 1600s. Fluorescence emission of Cy3 was measured at 590 nm following excitation at 544 nm on Polarstar™ fluorimeter.

GST-CDK2/Cyclin A = target: T5, GST-CDK2/Cyclin A (Homo sapiens, UniProt P24941); experiment: Radioactive endpoint kinase assay with GST-CDK2/Cyclin A; type: biochemical; settings: radioactive gamma-ATP, 30 min at 30° C., histone H1 positive control
T5 construct: made in house; host or cells: E. coli
Procedure: In order to characterize […]1 biosensor in vitro, we first asked whether it could be used to monitor recombinant kinase activity in a real-time assay. […] A kinase assay was performed by addition of GST-CDK2/CIV complexed with His-Cyclin A to […]1, in the presence of 0.5 mM ATP and 5 mM MgCl2, and […]1 fluorescence was monitored over time. Phosphorylation of 5 uM […]1 or histone H1 were performed in 50 mM Tris pH 7.5, 5 mM MgCl2, 0.5 mM ATP, and 33P-gamma-ATP for 30 min at 30° C. The reaction was stopped by addition of Laemmli buffer, and samples were run on SDS-PAGE then exposed by autoradiography.

T2 sequence (P06493 whole entry, species assumed): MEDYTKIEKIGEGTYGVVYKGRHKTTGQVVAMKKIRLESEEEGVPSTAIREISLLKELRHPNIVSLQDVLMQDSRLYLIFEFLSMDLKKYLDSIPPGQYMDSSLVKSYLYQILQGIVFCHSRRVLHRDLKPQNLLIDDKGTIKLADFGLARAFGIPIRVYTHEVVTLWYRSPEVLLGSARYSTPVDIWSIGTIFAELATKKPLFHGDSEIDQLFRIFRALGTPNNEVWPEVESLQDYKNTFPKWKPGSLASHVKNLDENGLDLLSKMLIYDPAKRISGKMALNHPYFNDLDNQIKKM
T2 sequence (P14635 whole entry partner, species assumed): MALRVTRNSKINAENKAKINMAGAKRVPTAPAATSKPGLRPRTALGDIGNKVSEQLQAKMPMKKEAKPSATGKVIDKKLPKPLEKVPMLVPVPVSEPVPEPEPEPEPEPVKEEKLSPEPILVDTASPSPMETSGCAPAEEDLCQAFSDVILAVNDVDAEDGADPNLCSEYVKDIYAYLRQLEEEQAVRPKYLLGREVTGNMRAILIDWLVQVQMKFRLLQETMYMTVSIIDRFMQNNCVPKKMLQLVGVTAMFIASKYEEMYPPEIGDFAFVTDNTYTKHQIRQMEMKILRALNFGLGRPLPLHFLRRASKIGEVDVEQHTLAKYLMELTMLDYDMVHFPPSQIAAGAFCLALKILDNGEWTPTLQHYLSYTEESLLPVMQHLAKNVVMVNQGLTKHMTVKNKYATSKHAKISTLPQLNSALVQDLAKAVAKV
Plk3, sequence (Q9H4B4 whole entry, species assumed): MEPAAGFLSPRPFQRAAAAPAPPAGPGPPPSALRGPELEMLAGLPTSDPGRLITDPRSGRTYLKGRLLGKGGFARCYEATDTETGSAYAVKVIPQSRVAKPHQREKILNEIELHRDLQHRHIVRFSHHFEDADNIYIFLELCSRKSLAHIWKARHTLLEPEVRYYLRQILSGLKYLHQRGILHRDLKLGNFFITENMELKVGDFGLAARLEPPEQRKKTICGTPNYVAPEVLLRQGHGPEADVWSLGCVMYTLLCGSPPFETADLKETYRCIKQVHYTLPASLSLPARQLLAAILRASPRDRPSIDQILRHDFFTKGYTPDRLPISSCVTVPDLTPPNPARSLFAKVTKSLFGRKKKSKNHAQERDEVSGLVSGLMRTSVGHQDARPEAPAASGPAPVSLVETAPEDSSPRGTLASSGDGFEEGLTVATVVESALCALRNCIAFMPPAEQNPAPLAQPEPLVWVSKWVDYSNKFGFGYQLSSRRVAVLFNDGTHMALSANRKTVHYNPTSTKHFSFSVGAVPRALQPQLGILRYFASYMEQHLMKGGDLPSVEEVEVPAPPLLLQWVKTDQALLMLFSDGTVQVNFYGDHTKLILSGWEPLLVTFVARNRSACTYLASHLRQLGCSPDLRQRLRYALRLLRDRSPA
T1 sequence (P11802 whole entry, species assumed): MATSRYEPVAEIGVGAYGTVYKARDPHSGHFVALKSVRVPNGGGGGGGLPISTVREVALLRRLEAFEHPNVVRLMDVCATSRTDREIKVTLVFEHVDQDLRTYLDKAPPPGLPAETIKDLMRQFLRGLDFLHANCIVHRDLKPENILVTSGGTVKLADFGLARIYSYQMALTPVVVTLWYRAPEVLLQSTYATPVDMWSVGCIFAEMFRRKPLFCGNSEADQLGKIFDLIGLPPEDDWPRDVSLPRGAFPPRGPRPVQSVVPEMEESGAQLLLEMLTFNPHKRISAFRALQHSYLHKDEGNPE
T1 sequence (P24385 whole entry partner, species assumed): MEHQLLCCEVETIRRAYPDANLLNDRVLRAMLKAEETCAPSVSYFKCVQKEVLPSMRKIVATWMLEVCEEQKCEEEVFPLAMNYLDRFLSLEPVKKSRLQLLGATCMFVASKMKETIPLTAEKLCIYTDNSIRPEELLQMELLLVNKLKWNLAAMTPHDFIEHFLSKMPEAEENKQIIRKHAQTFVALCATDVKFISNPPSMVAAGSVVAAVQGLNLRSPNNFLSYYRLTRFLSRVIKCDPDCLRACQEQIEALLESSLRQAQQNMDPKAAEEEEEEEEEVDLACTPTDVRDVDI
T3 sequence (P06493 whole entry, species assumed): as the sequence (P06493 whole entry, species assumed) above
T3 sequence (P14635 whole entry partner, species assumed): as the sequence (P14635 whole entry partner, species assumed) above
Plk1, sequence (P53350 whole entry): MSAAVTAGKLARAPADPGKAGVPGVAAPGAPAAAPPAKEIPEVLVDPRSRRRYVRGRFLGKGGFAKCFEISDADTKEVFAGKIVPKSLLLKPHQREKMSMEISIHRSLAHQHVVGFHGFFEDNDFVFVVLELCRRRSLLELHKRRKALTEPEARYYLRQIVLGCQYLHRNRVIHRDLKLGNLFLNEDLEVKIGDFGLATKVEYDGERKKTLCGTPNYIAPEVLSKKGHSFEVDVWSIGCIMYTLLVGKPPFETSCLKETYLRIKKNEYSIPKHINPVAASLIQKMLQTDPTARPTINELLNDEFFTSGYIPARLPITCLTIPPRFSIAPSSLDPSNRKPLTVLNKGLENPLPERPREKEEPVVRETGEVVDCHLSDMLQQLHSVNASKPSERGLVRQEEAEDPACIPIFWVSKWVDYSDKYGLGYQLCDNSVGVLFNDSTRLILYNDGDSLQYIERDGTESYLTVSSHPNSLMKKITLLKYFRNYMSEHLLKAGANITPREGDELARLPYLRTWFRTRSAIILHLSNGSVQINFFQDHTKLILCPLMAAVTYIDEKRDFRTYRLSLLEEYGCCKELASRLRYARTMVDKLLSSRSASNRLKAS

Molecule	change in CDKACTH1 fluorescence induced by the kinase (CDK4/Cyclin D)	phosphorylation of the biosensor by the kinase (fluorescence assay) (CDK1/Cyclin B)	sensor concentration giving the optimal response (CDK1/Cyclin B; for 50-100 nM CDK1/Cyclin B) [nM]	change in CDKACTH1 fluorescence induced by the kinase (Plk1)	change in CDKACTH1 fluorescence induced by the kinase (Plk3)	phosphorylation of the biosensor in standard radioactive kinase assay (GST-CDK1-Cyclin B)	solubility upon removal of the GST tag [1]	sensor concentration giving the best response (CDK2/Cyclin A; for 25-50 nM CDK2/CyclinA) [nM]	phosphorylation of the biosensor in standard radioactive kinase assay (GST-CDK2/Cyclin A)	competition assay: effect on phosphorylation of CDKACTH1 (CDK2/Cyclin A; 25 nM CDKACTH1-Cy3, 25 nM CDK2/Cyclin A, 25 or 100 nM unlabelled CDKACTH1, 25 or 500 nM histone)
B1	reminiscent of CDK2/Cyclin A	indeed phosphorylated	10	did not induce any significant changes	did not induce any significant changes	is phosphorylated	complete precipitation	25	is phosphorylated	–
B2	–	–	–	–	–	–	–	–	–	prevented full phosphorylation
